Measured values: the supplement of paper PMC9876800

system: peptide library, one residue held at a place counted from the S/T acceptor; assay: relative phosphorylation of the sub-library (ratio to the mean residue at this position); human; higher = residue favoured; conditions: H fixed; at -5
Procedure, shortened: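 Relative sub-library phosphorylation is the ratio of each sub-library's signal to the mean residue at that position. The signal came from phosphorimaging of spots on streptavidin membranes, quantified by densitometry, after purified recombinant kinases reacted with biotinylated degenerate peptide sub-libraries in 384-well plates. Reactions held 50 μM peptide and 50 μM ATP spiked with γ-32P-ATP for 90 min under kinase-specific conditions.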

Sequence of CLK3, construct: Full length (P49761 whole entry, looked up): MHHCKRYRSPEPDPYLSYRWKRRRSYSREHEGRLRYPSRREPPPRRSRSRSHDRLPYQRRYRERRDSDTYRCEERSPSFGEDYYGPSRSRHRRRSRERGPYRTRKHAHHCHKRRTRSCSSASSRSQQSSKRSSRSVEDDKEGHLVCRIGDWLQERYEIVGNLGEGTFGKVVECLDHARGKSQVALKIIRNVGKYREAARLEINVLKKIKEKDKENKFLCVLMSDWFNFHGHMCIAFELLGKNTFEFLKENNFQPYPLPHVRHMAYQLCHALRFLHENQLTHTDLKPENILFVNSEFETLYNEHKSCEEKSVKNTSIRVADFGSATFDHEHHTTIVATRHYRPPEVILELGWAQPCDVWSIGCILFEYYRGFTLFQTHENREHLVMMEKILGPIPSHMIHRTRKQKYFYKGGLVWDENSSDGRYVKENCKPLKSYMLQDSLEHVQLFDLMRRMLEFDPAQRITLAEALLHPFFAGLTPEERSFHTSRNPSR
Sequence of RPS6KA6, construct: Full length (Q9UK32 whole entry, looked up): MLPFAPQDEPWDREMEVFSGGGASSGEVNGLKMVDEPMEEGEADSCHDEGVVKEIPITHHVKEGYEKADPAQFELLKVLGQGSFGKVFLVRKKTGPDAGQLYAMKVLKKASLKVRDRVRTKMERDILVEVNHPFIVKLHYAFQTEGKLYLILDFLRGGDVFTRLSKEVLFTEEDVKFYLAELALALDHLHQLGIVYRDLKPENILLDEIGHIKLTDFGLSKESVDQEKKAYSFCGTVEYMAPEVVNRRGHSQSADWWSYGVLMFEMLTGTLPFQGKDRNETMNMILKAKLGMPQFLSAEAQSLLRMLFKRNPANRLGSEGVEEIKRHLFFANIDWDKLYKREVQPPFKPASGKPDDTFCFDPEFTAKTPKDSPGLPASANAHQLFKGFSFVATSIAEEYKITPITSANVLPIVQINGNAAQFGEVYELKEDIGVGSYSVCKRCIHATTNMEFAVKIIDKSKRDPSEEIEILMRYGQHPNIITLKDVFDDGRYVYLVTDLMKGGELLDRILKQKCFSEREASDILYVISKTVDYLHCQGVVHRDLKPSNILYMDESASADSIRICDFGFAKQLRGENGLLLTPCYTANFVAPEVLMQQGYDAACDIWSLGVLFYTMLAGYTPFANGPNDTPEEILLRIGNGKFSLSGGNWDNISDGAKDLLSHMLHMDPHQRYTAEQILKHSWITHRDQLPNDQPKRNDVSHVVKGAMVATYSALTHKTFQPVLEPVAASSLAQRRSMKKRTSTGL
Sequence of MASTL, construct: Full length (Q96GX5 whole entry, looked up): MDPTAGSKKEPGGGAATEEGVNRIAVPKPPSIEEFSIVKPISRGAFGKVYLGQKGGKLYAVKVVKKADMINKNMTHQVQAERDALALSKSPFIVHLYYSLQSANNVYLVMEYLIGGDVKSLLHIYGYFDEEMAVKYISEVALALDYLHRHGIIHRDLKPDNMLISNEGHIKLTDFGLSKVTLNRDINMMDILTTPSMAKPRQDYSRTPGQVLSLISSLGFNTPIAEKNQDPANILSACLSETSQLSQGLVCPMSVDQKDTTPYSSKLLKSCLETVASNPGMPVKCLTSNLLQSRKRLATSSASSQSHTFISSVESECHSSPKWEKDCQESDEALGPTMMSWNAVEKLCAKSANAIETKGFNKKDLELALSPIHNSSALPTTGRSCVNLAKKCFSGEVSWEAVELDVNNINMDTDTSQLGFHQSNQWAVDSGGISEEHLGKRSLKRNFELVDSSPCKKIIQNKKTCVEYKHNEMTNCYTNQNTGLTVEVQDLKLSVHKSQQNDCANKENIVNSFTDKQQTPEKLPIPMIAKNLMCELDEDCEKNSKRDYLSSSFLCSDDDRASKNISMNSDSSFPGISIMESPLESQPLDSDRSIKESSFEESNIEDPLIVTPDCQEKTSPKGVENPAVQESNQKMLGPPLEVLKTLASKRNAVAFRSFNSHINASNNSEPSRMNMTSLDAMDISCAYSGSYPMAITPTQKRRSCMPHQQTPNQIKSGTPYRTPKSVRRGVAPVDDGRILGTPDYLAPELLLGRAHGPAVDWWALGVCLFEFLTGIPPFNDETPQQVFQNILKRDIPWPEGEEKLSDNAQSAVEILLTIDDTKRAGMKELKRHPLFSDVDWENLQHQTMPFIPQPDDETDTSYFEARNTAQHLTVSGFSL
Sequence of PRPF4B, construct: aa519-end (Q13523 519-1007, looked up): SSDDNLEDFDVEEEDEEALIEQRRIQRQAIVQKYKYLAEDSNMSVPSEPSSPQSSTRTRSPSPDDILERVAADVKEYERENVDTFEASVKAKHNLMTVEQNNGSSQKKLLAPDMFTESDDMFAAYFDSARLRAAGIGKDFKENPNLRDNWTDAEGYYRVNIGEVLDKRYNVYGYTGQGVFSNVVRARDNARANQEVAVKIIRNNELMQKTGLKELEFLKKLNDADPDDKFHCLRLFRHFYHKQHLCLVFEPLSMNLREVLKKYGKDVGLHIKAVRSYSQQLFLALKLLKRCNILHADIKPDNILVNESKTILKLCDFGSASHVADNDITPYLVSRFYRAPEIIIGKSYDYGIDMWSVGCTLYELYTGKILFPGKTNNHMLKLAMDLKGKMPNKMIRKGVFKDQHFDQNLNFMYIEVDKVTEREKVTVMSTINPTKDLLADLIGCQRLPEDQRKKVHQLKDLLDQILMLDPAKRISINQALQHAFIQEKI
Sequence of MELK, construct: aa1-340 (Q14680 1-340, looked up): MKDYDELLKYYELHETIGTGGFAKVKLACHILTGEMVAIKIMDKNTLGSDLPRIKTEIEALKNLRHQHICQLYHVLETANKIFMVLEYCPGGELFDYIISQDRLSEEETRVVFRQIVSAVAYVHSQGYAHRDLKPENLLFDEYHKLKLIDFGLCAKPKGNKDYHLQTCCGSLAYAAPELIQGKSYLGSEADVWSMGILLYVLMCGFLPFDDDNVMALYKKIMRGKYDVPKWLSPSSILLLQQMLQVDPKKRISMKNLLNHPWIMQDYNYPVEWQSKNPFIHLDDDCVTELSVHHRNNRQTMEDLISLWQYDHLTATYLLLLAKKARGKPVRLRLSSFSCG
Sequence of PAK3, construct: Full length (O75914 whole entry, looked up): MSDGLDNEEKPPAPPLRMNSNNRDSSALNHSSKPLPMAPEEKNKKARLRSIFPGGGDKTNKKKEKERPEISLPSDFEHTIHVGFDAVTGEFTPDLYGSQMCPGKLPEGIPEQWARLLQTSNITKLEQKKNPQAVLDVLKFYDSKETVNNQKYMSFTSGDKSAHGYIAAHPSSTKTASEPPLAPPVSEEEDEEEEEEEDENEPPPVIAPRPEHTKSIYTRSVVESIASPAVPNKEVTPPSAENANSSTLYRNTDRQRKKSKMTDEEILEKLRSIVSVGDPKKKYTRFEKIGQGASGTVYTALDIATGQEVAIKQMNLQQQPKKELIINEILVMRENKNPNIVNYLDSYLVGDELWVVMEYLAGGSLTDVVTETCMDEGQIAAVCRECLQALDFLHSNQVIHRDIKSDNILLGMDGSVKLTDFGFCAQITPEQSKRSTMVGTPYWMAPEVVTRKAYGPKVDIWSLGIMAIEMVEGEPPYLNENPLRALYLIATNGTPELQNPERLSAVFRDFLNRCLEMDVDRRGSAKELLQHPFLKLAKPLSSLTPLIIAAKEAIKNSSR
Sequence of GRK5, construct: Full length (P34947 whole entry, looked up): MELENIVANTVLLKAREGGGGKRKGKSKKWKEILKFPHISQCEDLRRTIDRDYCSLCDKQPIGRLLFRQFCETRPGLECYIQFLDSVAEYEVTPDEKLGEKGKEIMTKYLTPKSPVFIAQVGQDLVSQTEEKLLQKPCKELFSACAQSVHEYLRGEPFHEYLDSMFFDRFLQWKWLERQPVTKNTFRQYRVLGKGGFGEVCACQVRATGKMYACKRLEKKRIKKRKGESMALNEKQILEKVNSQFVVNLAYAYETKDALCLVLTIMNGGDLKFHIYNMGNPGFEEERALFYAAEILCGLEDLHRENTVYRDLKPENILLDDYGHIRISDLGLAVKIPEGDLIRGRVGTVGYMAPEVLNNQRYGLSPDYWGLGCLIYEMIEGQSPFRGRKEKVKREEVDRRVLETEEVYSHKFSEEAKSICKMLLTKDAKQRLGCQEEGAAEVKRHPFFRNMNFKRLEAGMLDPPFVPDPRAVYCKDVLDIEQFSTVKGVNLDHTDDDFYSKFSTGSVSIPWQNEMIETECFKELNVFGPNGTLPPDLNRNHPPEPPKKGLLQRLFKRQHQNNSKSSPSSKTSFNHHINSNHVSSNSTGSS
Sequence of TTK, construct: Full length (P33981 whole entry, looked up): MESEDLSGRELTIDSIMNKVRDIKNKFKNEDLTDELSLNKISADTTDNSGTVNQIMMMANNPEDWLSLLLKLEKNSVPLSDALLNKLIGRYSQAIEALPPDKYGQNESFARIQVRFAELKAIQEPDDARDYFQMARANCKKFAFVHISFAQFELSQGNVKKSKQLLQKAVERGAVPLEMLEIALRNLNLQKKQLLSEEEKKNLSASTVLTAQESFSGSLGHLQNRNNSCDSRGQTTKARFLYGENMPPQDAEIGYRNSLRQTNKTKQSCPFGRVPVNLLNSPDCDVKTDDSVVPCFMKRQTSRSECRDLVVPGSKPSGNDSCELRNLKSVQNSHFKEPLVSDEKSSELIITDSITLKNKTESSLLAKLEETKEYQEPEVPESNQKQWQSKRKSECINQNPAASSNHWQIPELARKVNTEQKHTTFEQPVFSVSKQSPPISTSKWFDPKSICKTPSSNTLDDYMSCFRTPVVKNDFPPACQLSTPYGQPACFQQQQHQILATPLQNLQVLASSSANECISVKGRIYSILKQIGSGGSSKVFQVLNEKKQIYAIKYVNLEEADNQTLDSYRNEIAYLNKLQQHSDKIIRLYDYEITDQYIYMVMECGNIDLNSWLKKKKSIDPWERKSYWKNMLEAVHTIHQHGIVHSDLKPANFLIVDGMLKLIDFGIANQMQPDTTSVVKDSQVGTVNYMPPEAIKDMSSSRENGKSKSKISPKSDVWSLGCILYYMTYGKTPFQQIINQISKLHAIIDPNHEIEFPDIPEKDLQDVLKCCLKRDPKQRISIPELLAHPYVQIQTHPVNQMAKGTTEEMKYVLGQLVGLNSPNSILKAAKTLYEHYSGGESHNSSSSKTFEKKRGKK

**Q.** “CLK3, construct: Full length (from UniProt P49761)” was tested. Which relative phosphorylation did it give?
**A.** 0.899

**Q.** “RPS6KA6, construct: Full length (from UniProt Q9UK32)” was tested. Which relative phosphorylation did it give?
**A.** 1

**Q.** How did the relative phosphorylation turn out when “GRK5, construct: Full length (from UniProt P34947)” was run?
**A.** 1.03

**Q.** “TTK, construct: Full length (from UniProt P33981)” was tested. Which relative phosphorylation did it give?
**A.** 1.25

**Q.** With “PRPF4B, construct: aa519-end (from UniProt Q13523)” as the substance, how does the relative phosphorylation read?
**A.** 0.832

same assay, conditions: I fixed; at +1

**Q.** With “PAK3, construct: Full length (from UniProt O75914)” as the substance, how does the relative phosphorylation read?
**A.** 1.27

**Q.** How did the relative phosphorylation turn out when “MASTL, construct: Full length (from UniProt Q96GX5)” was run?
**A.** 1.21

**Q.** How did the relative phosphorylation turn out when “MELK, construct: aa1-340 (from UniProt Q14680)” was run?
**A.** 0.511

**Q.** For “CLK3, construct: Full length (from UniProt P49761)”, which relative phosphorylation is on record?
**A.** 0.382

**Q.** With “RPS6KA6, construct: Full length (from UniProt Q9UK32)” as the substance, how does the relative phosphorylation read?
**A.** 1.49

**Q.** With “GRK5, construct: Full length (from UniProt P34947)” as the substance, how does the relative phosphorylation read?
**A.** 1.01

**Q.** How did the relative phosphorylation turn out when “TTK, construct: Full length (from UniProt P33981)” was run?
**A.** 1.29

**Q.** Which relative phosphorylation does the source give for “PRPF4B, construct: aa519-end (from UniProt Q13523)” here?
**A.** 0.68

same assay, conditions: I fixed; at +2

**Q.** “PAK3, construct: Full length (from UniProt O75914)” was tested. Which relative phosphorylation did it give?
**A.** 1.19

**Q.** “MASTL, construct: Full length (from UniProt Q96GX5)” was tested. Which relative phosphorylation did it give?
**A.** 1.23

**Q.** For “MELK, construct: aa1-340 (from UniProt Q14680)”, which relative phosphorylation is on record?
**A.** 1.64

**Q.** “CLK3, construct: Full length (from UniProt P49761)” was tested. Which relative phosphorylation did it give?
**A.** 0.381

**Q.** For “RPS6KA6, construct: Full length (from UniProt Q9UK32)”, which relative phosphorylation is on record?
**A.** 0.54

**Q.** Which relative phosphorylation does the source give for “GRK5, construct: Full length (from UniProt P34947)” here?
**A.** 1.15

**Q.** With “TTK, construct: Full length (from UniProt P33981)” as the substance, how does the relative phosphorylation read?
**A.** 0.784

**Q.** “PRPF4B, construct: aa519-end (from UniProt Q13523)” was tested. Which relative phosphorylation did it give?
**A.** 1.42

same assay, conditions: I fixed; at +3

**Q.** How did the relative phosphorylation turn out when “PAK3, construct: Full length (from UniProt O75914)” was run?
**A.** 0.983

**Q.** For “MASTL, construct: Full length (from UniProt Q96GX5)”, which relative phosphorylation is on record?
**A.** 1.19

**Q.** Which relative phosphorylation does the source give for “MELK, construct: aa1-340 (from UniProt Q14680)” here?
**A.** 0.77

**Q.** Which relative phosphorylation does the source give for “CLK3, construct: Full length (from UniProt P49761)” here?
**A.** 0.47

**Q.** For “RPS6KA6, construct: Full length (from UniProt Q9UK32)”, which relative phosphorylation is on record?
**A.** 0.708

**Q.** Which relative phosphorylation does the source give for “GRK5, construct: Full length (from UniProt P34947)” here?
**A.** 0.61

**Q.** “TTK, construct: Full length (from UniProt P33981)” was tested. Which relative phosphorylation did it give?
**A.** 1.89

**Q.** Which relative phosphorylation does the source give for “PRPF4B, construct: aa519-end (from UniProt Q13523)” here?
**A.** 0.911

same assay, conditions: I fixed; at +4

**Q.** With “PAK3, construct: Full length (from UniProt O75914)” as the substance, how does the relative phosphorylation read?
**A.** 0.777

**Q.** For “MASTL, construct: Full length (from UniProt Q96GX5)”, which relative phosphorylation is on record?
**A.** 0.878

**Q.** How did the relative phosphorylation turn out when “MELK, construct: aa1-340 (from UniProt Q14680)” was run?
**A.** 1.26

**Q.** For “CLK3, construct: Full length (from UniProt P49761)”, which relative phosphorylation is on record?
**A.** 0.681

**Q.** With “RPS6KA6, construct: Full length (from UniProt Q9UK32)” as the substance, how does the relative phosphorylation read?
**A.** 0.609

**Q.** “GRK5, construct: Full length (from UniProt P34947)” was tested. Which relative phosphorylation did it give?
**A.** 0.762

**Q.** With “TTK, construct: Full length (from UniProt P33981)” as the substance, how does the relative phosphorylation read?
**A.** 0.746

**Q.** How did the relative phosphorylation turn out when “PRPF4B, construct: aa519-end (from UniProt Q13523)” was run?
**A.** 0.934

same assay, conditions: I fixed; at -1

**Q.** How did the relative phosphorylation turn out when “PAK3, construct: Full length (from UniProt O75914)” was run?
**A.** 0.701

**Q.** For “MASTL, construct: Full length (from UniProt Q96GX5)”, which relative phosphorylation is on record?
**A.** 0.543

**Q.** For “MELK, construct: aa1-340 (from UniProt Q14680)”, which relative phosphorylation is on record?
**A.** 0.783

**Q.** Which relative phosphorylation does the source give for “CLK3, construct: Full length (from UniProt P49761)” here?
**A.** 0.203

**Q.** “RPS6KA6, construct: Full length (from UniProt Q9UK32)” was tested. Which relative phosphorylation did it give?
**A.** 0.262

**Q.** Which relative phosphorylation does the source give for “GRK5, construct: Full length (from UniProt P34947)” here?
**A.** 0.732

**Q.** “TTK, construct: Full length (from UniProt P33981)” was tested. Which relative phosphorylation did it give?
**A.** 0.696

**Q.** For “PRPF4B, construct: aa519-end (from UniProt Q13523)”, which relative phosphorylation is on record?
**A.** 0.863

same assay, conditions: I fixed; at -2

**Q.** How did the relative phosphorylation turn out when “PAK3, construct: Full length (from UniProt O75914)” was run?
**A.** 0.624

**Q.** With “MASTL, construct: Full length (from UniProt Q96GX5)” as the substance, how does the relative phosphorylation read?
**A.** 0.585

**Q.** For “MELK, construct: aa1-340 (from UniProt Q14680)”, which relative phosphorylation is on record?
**A.** 0.667

**Q.** With “CLK3, construct: Full length (from UniProt P49761)” as the substance, how does the relative phosphorylation read?
**A.** 0.33

**Q.** For “RPS6KA6, construct: Full length (from UniProt Q9UK32)”, which relative phosphorylation is on record?
**A.** 0.364

**Q.** How did the relative phosphorylation turn out when “GRK5, construct: Full length (from UniProt P34947)” was run?
**A.** 0.735

**Q.** How did the relative phosphorylation turn out when “TTK, construct: Full length (from UniProt P33981)” was run?
**A.** 0.294

**Q.** For “PRPF4B, construct: aa519-end (from UniProt Q13523)”, which relative phosphorylation is on record?
**A.** 1.21

same assay, conditions: I fixed; at -3

**Q.** For “PAK3, construct: Full length (from UniProt O75914)”, which relative phosphorylation is on record?
**A.** 0.494

**Q.** Which relative phosphorylation does the source give for “MASTL, construct: Full length (from UniProt Q96GX5)” here?
**A.** 0.66

**Q.** How did the relative phosphorylation turn out when “MELK, construct: aa1-340 (from UniProt Q14680)” was run?
**A.** 0.347

**Q.** How did the relative phosphorylation turn out when “CLK3, construct: Full length (from UniProt P49761)” was run?
**A.** 0.282

**Q.** Which relative phosphorylation does the source give for “RPS6KA6, construct: Full length (from UniProt Q9UK32)” here?
**A.** 0.205

**Q.** “GRK5, construct: Full length (from UniProt P34947)” was tested. Which relative phosphorylation did it give?
**A.** 0.828

**Q.** “TTK, construct: Full length (from UniProt P33981)” was tested. Which relative phosphorylation did it give?
**A.** 0.419

**Q.** With “PRPF4B, construct: aa519-end (from UniProt Q13523)” as the substance, how does the relative phosphorylation read?
**A.** 0.404

same assay, conditions: I fixed; at -4

**Q.** “PAK3, construct: Full length (from UniProt O75914)” was tested. Which relative phosphorylation did it give?
**A.** 0.629

**Q.** How did the relative phosphorylation turn out when “MASTL, construct: Full length (from UniProt Q96GX5)” was run?
**A.** 0.696

**Q.** For “MELK, construct: aa1-340 (from UniProt Q14680)”, which relative phosphorylation is on record?
**A.** 0.669

**Q.** How did the relative phosphorylation turn out when “CLK3, construct: Full length (from UniProt P49761)” was run?
**A.** 0.417

**Q.** With “RPS6KA6, construct: Full length (from UniProt Q9UK32)” as the substance, how does the relative phosphorylation read?
**A.** 0.479

**Q.** Which relative phosphorylation does the source give for “GRK5, construct: Full length (from UniProt P34947)” here?
**A.** 0.863

**Q.** Which relative phosphorylation does the source give for “TTK, construct: Full length (from UniProt P33981)” here?
**A.** 0.51

**Q.** For “PRPF4B, construct: aa519-end (from UniProt Q13523)”, which relative phosphorylation is on record?
**A.** 0.681

same assay, conditions: I fixed; at -5

**Q.** “PAK3, construct: Full length (from UniProt O75914)” was tested. Which relative phosphorylation did it give?
**A.** 0.643

**Q.** “MASTL, construct: Full length (from UniProt Q96GX5)” was tested. Which relative phosphorylation did it give?
**A.** 0.841

**Q.** “MELK, construct: aa1-340 (from UniProt Q14680)” was tested. Which relative phosphorylation did it give?
**A.** 1.13

**Q.** How did the relative phosphorylation turn out when “CLK3, construct: Full length (from UniProt P49761)” was run?
**A.** 0.523

**Q.** How did the relative phosphorylation turn out when “RPS6KA6, construct: Full length (from UniProt Q9UK32)” was run?
**A.** 0.433

**Q.** “GRK5, construct: Full length (from UniProt P34947)” was tested. Which relative phosphorylation did it give?
**A.** 0.892

**Q.** How did the relative phosphorylation turn out when “TTK, construct: Full length (from UniProt P33981)” was run?
**A.** 0.604

**Q.** “PRPF4B, construct: aa519-end (from UniProt Q13523)” was tested. Which relative phosphorylation did it give?
**A.** 0.831

same assay, conditions: K fixed; at +1

**Q.** How did the relative phosphorylation turn out when “PAK3, construct: Full length (from UniProt O75914)” was run?
**A.** 1.07

**Q.** With “MASTL, construct: Full length (from UniProt Q96GX5)” as the substance, how does the relative phosphorylation read?
**A.** 0.534

**Q.** “MELK, construct: aa1-340 (from UniProt Q14680)” was tested. Which relative phosphorylation did it give?
**A.** 1.38

**Q.** Which relative phosphorylation does the source give for “CLK3, construct: Full length (from UniProt P49761)” here?
**A.** 2.02

**Q.** Which relative phosphorylation does the source give for “RPS6KA6, construct: Full length (from UniProt Q9UK32)” here?
**A.** 1.14

**Q.** “GRK5, construct: Full length (from UniProt P34947)” was tested. Which relative phosphorylation did it give?
**A.** 0.804

**Q.** How did the relative phosphorylation turn out when “TTK, construct: Full length (from UniProt P33981)” was run?
**A.** 1.28

**Q.** For “PRPF4B, construct: aa519-end (from UniProt Q13523)”, which relative phosphorylation is on record?
**A.** 0.56

same assay, conditions: K fixed; at +2

**Q.** For “PAK3, construct: Full length (from UniProt O75914)”, which relative phosphorylation is on record?
**A.** 0.645
